The values below are quoted from earlier work in paper PMC8393326, “A Thermodynamic Analysis of the Binding Specificity between Four Human PDZ Domains and Eight Host, Viral and Designed Ligands” (Biomolecules, 2021).

One may read the pKd as the Kd on a negative log10 scale, so that one unit is a factor of ten.

pKd: −log10 of the molar value.

The target in series [1] is ERBB2 peptide (Homo sapiens).
In series [2] the target is phosphorylated ERBB2 peptide (Homo sapiens).

Chain of Erbin PDZ (Q96RT1 1318-1412): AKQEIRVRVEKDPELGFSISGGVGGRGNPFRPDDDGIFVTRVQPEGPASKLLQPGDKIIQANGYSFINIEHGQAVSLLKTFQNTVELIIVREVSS

Regarding Erbin PDZ (from UniProt Q96RT1), the pKd in series [1] is 4.30; in series [2], 3.89.
